Our source for the Km and kcat values is doi:10.1101/2023.07.13.548902v1.

Broadly, the Km is the substrate concentration at which the rate is half of its maximum. The term kcat denotes the maximal rate divided by the concentration of active sites.

Substrate in the data set: [H][C@@]1(O[C@H]2[C@H](O)[C@@H](O)[C@H](Oc3ccc([N+](=O)[O-])cc3)O[C@@H]2CO)O[C@H](CO)[C@H](O)[C@H](O)[C@H]1O
Briefly: p-nitrophenol release, Lineweaver-Burk. It is filed as biochemical, Aspergillus fumigatus. The following applies: 50 °C, 30 min, 25 mM citrate pH 5.0.

B1: AfCel7A (Aspergillus fumigatus Af293) (protein)
chain: QQVGTSQAEVHPSMTWQSCTAGGSCTTNNGKVVIDANWRWVHKVGDYTNCYTGNTWDTTICPDDATCASNCALEGANYESTYGVTASGNSLRLNFVTTSQQKNIGSRLYMMKDDSTYEMFKLLNQEFTFDVDVSNLPCGLNGALYFVAMDADGGMSKYPTNKAGAKYGTGYCDSQCPRDLKFINGQANVEGWQPSSNDANAGTGNHGSCCAEMDIWEANSISTAFTPHPCDTPGQVMCTGDACGGTYSSDRYGGTCDPDGCDFNSFRQGNKTFYGPGMTVDTKSKFTVVTQFITDDGTSSGTLKEIKRFYVQNGKVIPNSESTWTGVSGNSITTEYCTAQKSLFQDQNVFEKHGGLEGMGAALAQGMVLVMSLWDDHSANMLWLDSNYPTTASSTTPGVARGTCDISSGVPADVEANHPDAYVVYSNIKVGPIGSTFNSGGSNPGGGTTTTTTTQPTTTTTTAGNPGGTGVAQHYGQCGGIGWTGPTTCASPYTCQKLNDYYSQCL
As to B1, the Km worked out at 128 ± 1 µM and the kcat was 0.08055 ± 0.00033 s⁻¹.
